Tests used:
[1] = target: Bacillus anthracis protective antigen (PA) (Bacillus anthracis) (UniProt P13423)
[2] = target: Bacillus anthracis protective antigen (PA) (Bacillus anthracis) (UniProt P13423); remark: listed apart in the source

UniProt P13423, sequence (P13423 30-764 limits assumed): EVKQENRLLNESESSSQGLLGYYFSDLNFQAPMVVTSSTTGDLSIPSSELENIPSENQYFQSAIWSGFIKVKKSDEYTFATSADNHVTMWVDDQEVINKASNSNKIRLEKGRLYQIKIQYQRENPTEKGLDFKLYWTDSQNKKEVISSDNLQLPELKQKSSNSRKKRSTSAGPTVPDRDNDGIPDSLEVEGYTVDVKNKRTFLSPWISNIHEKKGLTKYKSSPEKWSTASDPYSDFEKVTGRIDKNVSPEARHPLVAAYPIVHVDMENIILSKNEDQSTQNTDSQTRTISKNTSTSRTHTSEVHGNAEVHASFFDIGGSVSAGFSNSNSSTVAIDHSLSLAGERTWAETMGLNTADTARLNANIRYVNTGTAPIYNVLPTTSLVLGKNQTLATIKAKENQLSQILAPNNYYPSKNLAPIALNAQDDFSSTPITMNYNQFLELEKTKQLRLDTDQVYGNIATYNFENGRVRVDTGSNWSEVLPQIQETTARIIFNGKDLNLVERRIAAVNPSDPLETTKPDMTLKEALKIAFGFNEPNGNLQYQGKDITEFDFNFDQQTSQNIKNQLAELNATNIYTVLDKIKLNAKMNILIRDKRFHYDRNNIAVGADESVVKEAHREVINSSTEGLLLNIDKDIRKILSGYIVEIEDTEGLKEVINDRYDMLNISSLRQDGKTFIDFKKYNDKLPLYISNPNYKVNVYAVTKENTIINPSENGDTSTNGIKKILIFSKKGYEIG

| Substance | fold higher mean fluorescence intensity compared to controls [1] | mean fluorescence [2] |
| --- | --- | --- |
| NlpA-[14B7 scFv], anchored on the E. coli inner membrane (APEx) | 9 fold | 30 |
| NlpA-[M18 scFv], anchored on the E. coli inner membrane (APEx) |  | 250 |

Reference: patent WO2005095988A2
